The text below walks through data of patent US11136407.

Broadly, the kon is the second-order rate constant of association. One may read the EC50 as the concentration at which the effect is half-maximal. Read a low EC50 as a more potent agent. A word on the Kd: it is the constant that tells how readily two partners part at equilibrium. A lower Kd goes with tighter binding. The term koff denotes a measure of how fast the partners let go of each other. A higher koff goes with fast dissociation.

The target in assay [1] is CD9-3×FLAG-rabbitFc-Sortase-biotin (human; rabbit). Nature of the assay: SPR (IBIS MX96) on CD9 chip.
Assay [2] has the same target. Briefly: SPR, 1:1 model. (In general: SPR reads the build-up and loss of mass on a sensor chip optically.)
For assay [3] the target is unchanged. Briefly: ELISA, biotinylated CD9-EC2-Fc on streptavidin plate, goat anti-mouse HRP.
Assay [4] shares this target. Briefly: SPR; rests on the kd set to 0.1*10^-5; unit from the legend paragraph 216.
Assay [5] shares this target. Briefly: SPR (IBIS MX96), antibody injected over CD9-3×FLAG-rabbitFc-Sortase-biotin chip, 1:1 model.
For assay [6] the target is unchanged. Nature of the assay: SPR; * legend: dissociation too low for accurate fitting, a value of 0.1*10^-5 is used.
The target is the same in assay [7]. Briefly: SPR, 1:1 model; unit from the legend paragraph 216.

Where only a bound is given, the exact number is not on record here.

In turn, mouse anti-CD9 antibody clone HI9a registered a fold affinity against AT14-012 in assay [1] of 19000 fold. In addition, in assay [2], the on-rate (kon) was found to be 430000 M⁻¹ s⁻¹. This substance also returned an EC50 in assay [3] of 0.02 µg/mL. The Kd in assay [4] and in assay [5] was 2.33 pM throughout. In addition, the koff in assay [6] is under 1e-06 s⁻¹.
mouse anti-CD9 antibody clone ALB6 had a fold dissociation against HI9a in assay [1] of 22 fold. In addition, the dissociation constant Kd in assay [7] and in assay [5] was 145 pM each time. Besides, the koff in assay [2] amounted to 2.16e-05 s⁻¹. This substance returned a kon in assay [2] of 151000 M⁻¹ s⁻¹. Further, in assay [3], the EC50 was determined as 0.013 µg/mL.
